Experiments:
[1] = target: T1, recombinant biotinylated monomeric Fc fusion of murine Folate Receptor 1 (mu FolR1 ECD-AcTev-Fcknob-Avitag … (murine, UniProt P0DOX5 223-449 = IgG part, biotin on the C-terminal Avi tag)); assay: SPR ProteOn, Fab analyte on immobilized antigen-Fc
T1 construct: also called muFolR1-Fc; murine FolR1
Method: Immobilization of antigens (ligand): Recombinant antigens were diluted with PBST (10 mM phosphate, 150 mM sodium chloride pH 7.4, 0.005% Tween 20) to 10 μg/ml, then injected at 30 μl/minute in vertical orientation. Injection of analytes: For ‘one-shot kinetics’ measurements, injection direction was changed to horizontal orientation, two-fold dilution series of purified Fab (varying concentration ranges) were injected simultaneously along separate channels 1-5, with association times of 150 or 200 s, and dissociation times of 200 or 600 s, respectively. Buffer (PBST) was injected along the sixth channel to provide an “in-line” blank for referencing. Association rate constants (kₒₙ) and dissociation rate constants (koff) were calculated using a simple one-to-one Langmuir binding model in ProteOn Manager v3.1 software by simultaneously fitting the association and dissociation sensorgrams. The equilibrium dissociation constant (KD) was calculated as the ratio koff/kₒₙ.

[2] = target: T1, recombinant biotinylated monomeric Fc …; assay: SPR Biacore, single injection on immobilized antigen-Fc
Method: (§1) Binding of FolR1 binders as IgG or in the T-cell bispecific format to different recombinant folate receptors (human FolR1, 2 and 3, murine FolR1 and cynomolgus FolR1; all as Fc fusions) was assessed by surface plasmon resonance (SPR). All SPR experiments were performed on a Biacore T200 at 25° C. with HBS-EP as running buffer (0.01 M HEPES pH 7.4, 0.15 M NaCl, 3 mM EDTA, 0.005% Surfactant P20, Biacore, Freiburg/Germany).
(§2) First the anti-FolR1 IgGs were analyzed by single injections (Table 1) to characterize their crossreactivity (to human, murine and cyno FolR1) and specificity (to human FolR1, human FolR2, human FolR3). Recombinant biotinylated monomeric Fc fusions of human, cynomolgus and murine Folate Receptor 1 (FolR1-Fc) or human Folate Receptor 2 and 3 (FolR2-Fc, FolR3-Fc) were directly coupled on a SA chip using the standard coupling instruction (Biacore, Freiburg/Germany). The immobilization level was about 300-400 RU. The IgGs were injected for 60 seconds at a concentration of 500 nM.

[3] = target: T2, recombinant biotinylated monomeric Fc fusion of human Folate Receptor 2 (hu FolR2 ECD-AcTev-Fcknob-Avi tag … (human, UniProt P0DOX5 223-449 = IgG part, biotin on the C-terminal Avi tag)); assay: SPR ProteOn, Fab analyte on immobilized antigen-Fc
T2 construct: also called FolR2-Fc
Method: (§3) Immobilization of antigens (ligand): Recombinant antigens were diluted with PBST (10 mM phosphate, 150 mM sodium chloride pH 7.4, 0.005% Tween 20) to 10 μg/ml, then injected at 30 μl/minute in vertical orientation. Injection of analytes: For ‘one-shot kinetics’ measurements, injection direction was changed to horizontal orientation, two-fold dilution series of purified Fab (varying concentration ranges) were injected simultaneously along separate channels 1-5, with association times of 200 s, and dissociation times of 600 s. Buffer (PBST) was injected along the sixth channel to provide an “in-line” blank for referencing. Association rate constants (kₒₙ) and dissociation rate constants (koff) were calculated using a simple one-to-one Langmuir binding model in ProteOn Manager v3.1 software by simultaneously fitting the association and dissociation sensorgrams. The equilibrium dissociation constant (KD) was calculated as the ratio koff/kₒₙ.

[4] = target: T3, recombinant biotinylated monomeric Fc fusion of human Folate Receptor 1 (huFolR1 ECD-AcTev-Fcknob-Avi tag … (human, UniProt P0DOX5 223-449 = IgG part, biotin on the C-terminal Avi tag)); assay: SPR ProteOn, Fab analyte on immobilized antigen-Fc
T3 construct: also called huFolR1-Fc; human FolR1-Fc
Method: as §3

[5] = target: T4, recombinant biotinylated monomeric Fc fusion of cynomolgus Folate Receptor 1 (cy FolR1 ECD-AcTev-Fcknob-Avi … (cynomolgus, UniProt P0DOX5 223-449 = IgG part, biotin on the C-terminal Avi tag)); assay: SPR ProteOn, Fab analyte on immobilized antigen-Fc
T4 construct: also called cyFolR1-Fc; cyno FolR1
Method: as §3

[6] = target: T5, recombinant biotinylated monomeric Fc fusion of human Folate Receptor 3 (hu FolR3 ECD-AcTev-Fcknob-Avi tag … (human, UniProt P0DOX5 223-449 = IgG part, biotin on the C-terminal Avi tag)); assay: SPR ProteOn, Fab analyte on immobilized antigen-Fc
T5 construct: also called FolR3-Fc
Method: as §3

[7] = target: T2, recombinant biotinylated monomeric Fc …; assay: SPR Biacore, single injection on immobilized antigen-Fc
Method: as §1, §2

[8] = target: T5, recombinant biotinylated monomeric Fc …; assay: as above
Method: as §1, §2

binding result [2] | binding result [3] | Kd [4] | Kd [5] | binding result [6] | Binder | also measured
– | – | – | – | – | 11F8 Fab (Fab, V domains shown, bacterial Fab) VH: QVQLVQSGAEVKKPGSSVKVSCKASGGTFSSYAISWVRQAPGQGLEWMGGIIPIFGTANYAQKFQGRVTITADKSTSTAYMELSSLRSEDTAVYYCARAVFYRAWYSFDYWGQGTTVTVSS VL: DIQMTQSPSTLSASVGDRVTITCRASQSISSWLAWYQQKPGKAPKLLIYDASSLESGVPSRFSGSGSGTEFTLTISSLQPDDFATYYCQQYTSPPPTFGQGTKVEIK | Kd [1]: 1200 nM
no binding (tested: 500 nM) | – | – | – | – | 5D9 IgG (antibody, V domains shown, human IgG1) VH: QVQLVQSGAEVKKPGASVKVSCKASGYTFTSYYMHWVRQAPGQGLEWMGIINPSGGSTSYAQKFQGRVTMTRDTSTSTVYMELSSLRSEDTAVYYCARSYIDMDYWGQGTLVTVSS VL: EIVLTQSPGTLSLSPGERATLSCRASQSVSSSYLAWYQQKPGQAPRLLIYGASSRATGIPDRFSGSGSGTDFTLTISRLEPEDFAVYYCQQDNWSPTFGQGTKVEIK | –
no binding (tested: 500 nM) | – | – | – | – | 6B6 IgG (antibody, V domains shown, human IgG1) VH: QVQLVQSGAEVKKPGASVKVSCKASGYTFTSYYMHWVRQAPGQGLEWMGIINPSGGSTSYAQKFQGRVTMTRDTSTSTVYMELSSLRSEDTAVYYCARSYVDMDYWGQGTLVTVSS VL: EIVLTQSPGTLSLSPGERATLSCRASQSVSSSYLAWYQQKPGQAPRLLIYGASSRATGIPDRFSGSGSGTDFTLTISRLEPEDFAVYYCQQDIWSPTFGQGTKVEIK | –
– | no binding | 30.9 nM | 17.3 nM | no binding | 15A1 Fab (Fab, V domains shown, bacterial Fab) VH: QVQLVQSGAEVKKPGASVKVSCKASGYTFTSYYMHWVRQAPGQGLEWMGIINPSGGSTSYAQKFQGRVTMTRDTSTSTVYMELSSLRSEDTAVYYCARNYYIGVVTFDYWGQGTLVTVSS VL: QAVVTQEPSLTVSPGGTVTLTCGSSTGAVTTSNYANWVQEKPGQAFRGLIGGTNKRAPGTPARFSGSLLGGKAALTLSGAQPEDEAEYYCALWYSNLWVFGGGTKLTVL | –
– | no binding | 21.7 nM | 18 nM | no binding | 16A3 Fab (Fab, V domains shown, bacterial Fab) VH: QVQLVQSGAEVKKPGASVKVSCKASGYTFTSYYMHWVRQAPGQGLEWMGIINPSGGSTSYAQKFQGRVTMTRDTSTSTVYMELSSLRSEDTAVYYCARNYYAGVTPFDYWGQGTLVTVSS VL: QAVVTQEPSLTVSPGGTVTLTCGSSTGAVTTSNYANWVQEKPGQAFRGLIGGTNKRAPGTPARFSGSLLGGKAALTLSGAQPEDEAEYYCALWYSNLWVFGGGTKLTVL | –
– | no binding | 93.6 nM | 40.2 nM | no binding | 18D3 Fab (Fab, V domains shown, bacterial Fab) VH: QVQLVQSGAEVKKPGASVKVSCKASGYTFTSYYMHWVRQAPGQGLEWMGIINPSGGSTSYAQKFQGRVTMTRDTSTSTVYMELSSLRSEDTAVYYCARNYYTGGSSAFDYWGQGTLVTVS VL: QAVVTQEPSLTVSPGGTVTLTCGSSTGAVTTSNYANWVQEKPGQAFRGLIGGTNKRAPGTPARFSGSLLGGKAALTLSGAQPEDEAEYYCALWYSNLWVFGGGTKLTVL | –
– | no binding | – | – | no binding | 19H3 Fab (Fab, V domains shown, bacterial Fab) VH: QVQLVQSGAEVKKPGASVKVSCKASGYTFTSYYMHWVRQAPGQGLEWMGIINPSGGSTSYAQKFQGRVTMTRDTSTSTVYMELSSLRSEDTAVYYCARTGWSRWGYMDYWGQGTLVTVSS VL: QAVVTQEPSLTVSPGGTVTLTCGSSTGAVTTSNYANWVQEKPGQAFRGLIGGTNKRAPGTPARFSGSLLGGKAALTLSGAQPEDEAEYYCALWYSNLWVFGGGTKLTVL | binding result [4]: no binding; binding result [5]: no binding
no binding (tested: 500 nM) | – | – | – | – | 21G8 IgG (antibody, V domains shown, human IgG1) VH: not shown VL: QAVVTQEPSLTVSPGGTVTLTCGSSTGAVTTSNYANWVQEKPGQAFRGLIGGTNKRAPGTPARFSGSLLGGKAALTLSGAQPEDEAEYYCALWYSNLWVFGGGTKLTVL | –
– | no binding | 62.6 nM | 32.1 nM | no binding | 21D1 Fab (Fab, V domains shown, bacterial Fab) VH: QVQLVQSGAEVKKPGASVKVSCKASGYTFTSYYMHWVRQAPGQGLEWMGIINPSGGSTSYAQKFQGRVTMTRDTSTSTVYMELSSLRSEDTAVYYCARNYYVGVSPFDYWGQGTLVTVSS VL: QAVVTQEPSLTVSPGGTVTLTCGSSTGAVTTSNYANWVQEKPGQAFRGLIGGTNKRAPGTPARFSGSLLGGKAALTLSGAQPEDEAEYYCALWYSNLWVFGGGTKLTVL | –
– | no binding | – | – | no binding | 20G6 Fab (Fab, V domains shown, bacterial Fab) VH: QVQLVQSGAEVKKPGASVKVSCKASGYTFTSYYMHWVRQAPGQGLEWMGIINPSGGSTSYAQKFQGRVTMTRDTSTSTVYMELSSLRSEDTAVYYCARGEWIRYYHFDYWGQGTLVTVSS VL: QAVVTQEPSLTVSPGGTVTLTCGSSTGAVTTSNYANWVQEKPGQAFRGLIGGTNKRAPGTPARFSGSLLGGKAALTLSGAQPEDEAEYYCALWYSNLWVFGGGTKLTVL | binding result [4]: no binding; binding result [5]: no binding
no binding (tested: 500 nM) | – | – | – | – | 15B6 IgG (antibody, V domains shown, human IgG1) VH: QVQLVQSGAEVKKPGASVKVSCKASGYTFTSYYMHWVRQAPGQGLEWMGIINPSGGSTSYAQKFQGRVTMTRDTSTSTVYMELSSLRSEDTAVYYCARNYYIGIVPFDYWGQGTLVTVSS VL: QAVVTQEPSLTVSPGGTVTLTCGSSTGAVTTSNYANWVQEKPGQAFRGLIGGTNKRAPGTPARFSGSLLGGKAALTLSGAQPEDEAEYYCALWYSNLWVFGGGTKLTVL | binding result [7]: no binding (tested: 500 nM); binding result [8]: no binding (tested: 500 nM)
no binding (tested: 500 nM) | – | – | – | – | 16F12 IgG (antibody, V domains shown, human IgG1) VH: QVQLVQSGAEVKKPGASVKVSCKASGYTFTSYYMHWVRQAPGQGLEWMGIINPSGGSTSYAQKFQGRVTMTRDTSTSTVYMELSSLRSEDTAVYYCARNFTVLRVPFDYWGQGTLVTVSS VL: QAVVTQEPSLTVSPGGTVTLTCGSSTGAVTTSNYANWVQEKPGQAFRGLIGGTNKRAPGTPARFSGSLLGGKAALTLSGAQPEDEAEYYCALWYSNLWVFGGGTKLTVL | binding result [7]: no binding (tested: 500 nM); binding result [8]: no binding (tested: 500 nM)

Reference: US20220220224A1 (Hoffmann-La Roche, published 2022)
